Positions count from the first letter of the chain named. Where two headings read alike, the source gives them in different places.
Key:
human CLDN-18.2 [1] = biological target: T1, human CLDN-18.2 (human, UniProt P56856 1-261); experiment: cell-based or functional assay
human CLDN-18.2 [2] = biological target: T1, human CLDN-18.2; experiment: cell-based or functional assay; remark: listed apart in the source
human CLDN-18.2 [3] = biological target: T1, human CLDN-18.2; experiment: flow cytometry on NUGC4-CLDN-18.2 cells overexpressing human CLDN-18.2, 4 °C 30 min, fluorescent secondary antibody, MFI-PE
Experimental: Finally, the fluorescence intensity was detected by BD CantoII flow cytometer. […] The antibody dose-dependent binding curve was fitted by GraphPad (FIGS. 1a-1d) and EC50 was calculated. The positive controls were the corresponding monoclonal antibodies, and the negative control was anti-KLH IgG1.

human CLDN-18.2 [4] = biological target: T1, human CLDN-18.2; experiment: cell-based or functional assay; remark: listed apart in the source

B1: ADC-4-MMAE (antibody, human IgG1, kappa, V domains shown)
VH: EVQLVESGGGLVQPGGSLRLSCAASGFTLNNFGMHWVRQAPGKGLEWVSSISSGSGTIYYADSVKGRFTISRDNPKNSLYLQMNSLRAEDTAVYYCARAYYGNGFSFWGQGTLVTVSS
VL: DIVMTQSPDSLAVSLGERATINCKSSQSLLNSGNQKNYLTWYQQKPGQPPKLLIYWASTRESGVPDRFSGSGSGTDFTLTISSLQAEDVAVYYCQNVYSYPLTFGQGTKLEIKR
modifications: MC-VC-PAB-MMAE (vc-MMAE) coupled after TCEP reduction of the antibody; positions not given; DAR 4.55
notes: also called JS107-4-MMAE
EC50 of endocytosis (MFI-APC of CypHer5E-labelled conjugate in NUGC4-CLDN-18.2 cells, 37 °C 4 h, FACS) (human CLDN-18.2 [1]): 2.67 µg/mL
IC50 of inhibition of NUGC4-CLDN-18.2 cells proliferation (Cell titer Glo, 48 h) (human CLDN-18.2 [2]): 0.011 µg/mL
EC50 (human CLDN-18.2 [3]): 0.495 µg/mL

B2: JS012-Chi9-hu7 (antibody, human IgG1, kappa, V domains shown)
VH: QIQLVQSGSELKKPGESVKVSCKASGYTFTNYGMNWVRQAPGQGLEWMGWINTYTGESTYADGFTGRFVFSSDTSARTAYLQISSLKAEDTAVYFCATLGYGNSLAYWGQGTLVTVSS
VL: B1 VL with K36R, V97N, S99F, L102F
notes: also called JS107-3; JS012-chi9-hu07
EC50 (human CLDN-18.2 [3]): 3.76 µg/mL

B3: ADC-5-MMAE (antibody, human IgG1, kappa, V domains shown)
VH: B1 VH
VL: B1 VL
modifications: MC-VC-PAB-MMAE (vc-MMAE) coupled after TCEP reduction of the antibody; positions not given; DAR 4.1
notes: also called JS107-5-MMAE
EC50 of endocytosis (MFI-APC of CypHer5E-labelled conjugate in NUGC4-CLDN-18.2 cells, 37 °C 4 h, FACS) (human CLDN-18.2 [4]): 21.8 µg/mL
EC50 (human CLDN-18.2 [3]): 0.23 µg/mL

B4: JS012-Chi2-hu2-v3-2a (antibody, human IgG1, kappa, V domains shown)
VH: B1 VH
VL: B1 VL
notes: also called JS107-5
EC50 of endocytosis (MFI-APC of CypHer5E-labelled antibody in NUGC4-CLDN-18.2 cells, 37 °C 4 h, FACS) (human CLDN-18.2 [4]): 58.8 µg/mL
EC50 (human CLDN-18.2 [3]): 0.347 µg/mL

B5: JS012-Chi2-hu2-v3-2 (antibody, human IgG1, kappa, V domains shown)
VH: B1 VH
VL: B1 VL
notes: also called JS107-4
EC50 (human CLDN-18.2 [3]): 1.65 µg/mL

B6: ADC-3-MMAE (antibody, V domains shown)
VH: B2 VH
VL: B1 VL with K36R, V97N, S99F, L102F
modifications: MC-VC-PAB-MMAE (vc-MMAE) coupled after TCEP reduction of the antibody; positions not given; DAR 3.97
notes: also called JS107-3-MMAE
EC50 of endocytosis (MFI-APC of CypHer5E-labelled conjugate in NUGC4-CLDN-18.2 cells, 37 °C 4 h, FACS) (human CLDN-18.2 [1]): 0.937 µg/mL
IC50 of inhibition of NUGC4-CLDN-18.2 cells proliferation (Cell titer Glo, 48 h) (human CLDN-18.2 [2]): 0.0127 µg/mL
EC50 (human CLDN-18.2 [3]): 2.96 µg/mL

B7: ADC-4-MMAF (antibody, human IgG1, kappa, V domains shown)
VH: B1 VH
VL: B1 VL
modifications: MC-MMAF coupled after TCEP reduction of the antibody; positions not given; DAR 3.85
notes: also called JS107-4-MMAF
EC50 of endocytosis (MFI-APC of CypHer5E-labelled conjugate in NUGC4-CLDN-18.2 cells, 37 °C 4 h, FACS) (human CLDN-18.2 [1]): 1.61 µg/mL
IC50 of inhibition of NUGC4-CLDN-18.2 cells proliferation (Cell titer Glo, 48 h) (human CLDN-18.2 [2]): 0.00936 µg/mL
EC50 (human CLDN-18.2 [3]): 1.21 µg/mL
